# From patent US20260116960A1 (SHANGHAI HONGCHENG BIOPHARMACEUTICAL, published 2026)
# What was measured:
# [1] = molecular target: T1, human CTLA-4 on the cell surface (human, UniProt P16410 36-223); assay: flow cytometry, CHO-hCTLA-4 cells, batch FACS#3
# T1 construct: whole, on cells; also called CHO-hCTLA-4 cells; CHOK1-hCTLA4 cells
# [2] = molecular target: T1, human CTLA-4 on the cell surface; assay: flow cytometry competition, CHO-hCTLA-4 cells, biotin-human CD80
# Procedure: CHO-hCTLA-4 cells were obtained by trypsin digestion, washed twice with PBS containing 2% FBS (FACS buffer), and resuspended in FACS buffer. 200 μL of the cells were added to a 96-well U-bottom plate, approximately 2×10⁵ cells/well. After centrifugation at 300 g for 5 minutes, the supernatant was discarded. […] After washing three times with FACS buffer, 100 μL/well of 1:800 diluted PE Streptavidin was added and incubated at 4° C. for 50 min. After washing three times with FACS buffer, 150 μL/well of PBS was added to resuspend the cells, and the fluorescence signal was detected on a flow cytometer (BECKMAN COULTER cytoFLEX). The four-parameter model was used to fit the binding activity and the IC₅₀ value of the blocking activity of each antibody was calculated.
# [3] = molecular target: T1, human CTLA-4 on the cell surface; assay: flow cytometry on activated human T cells (CD3+), PE anti-human IgG Fc
# Procedure: (§1) Human peripheral blood mononuclear cells (PBMCs, Miaoshun (Shanghai) Biotechnology Co., Ltd., Catalog No.: A19K154025) were rapidly thawed in a 37° C. water bath, resuspended in T cell isolating solution, and counted. After centrifugation at 400 g for 10 minutes, the supernatant was removed and the cells were resuspended to 5×10⁷ cells/mL with T cell separation buffer. T cells were isolated according to the procedure of a T cell isolation kit (Stemcell, Catalog No.: 19051), and the obtained T cells were resuspended in culture medium. The cells were counted using NucleoCounter NC-200 and the T cell density was adjusted to approximately 1×10⁶ cells/mL. Dynabeads containing anti-CD3 and anti-CD28 antibodies (Invitrogen™, Catalog No.: 11132D) and 10 ng/ml hIL-2 (Peprotech, Catalog No.: 200-02) were added and cultured in a 37° C., 5% CO₂ incubator for 3 days. After removing Dynabeads and supernatant, the activated T cells were resuspended in FACS buffer. The cell density was adjusted to about 1×10⁶ cells/mL, and 100 μL of cell solution was added into a 96-well U-bottom plate, 1×10⁵ cells/well. After centrifugation at 500 g for 5 minutes, the supernatant was discarded and 100 μL of the trispecific antibody solution of the present application serially diluted 3-fold with FACS buffer was added in triplicate, with a starting concentration of 200 nM. After mixing, incubated at 4° C. for 60 minutes. After centrifugation and washing three times with FACS buffer, 100 μL/well of PE anti-human IgG Fc (Biolegend, Catalog No.: 366903) was added and incubated at 4° C. for 50 minutes. After washing the plate three times with FACS buffer, 100 μL/well of BV421 anti-human CD3 antibody (OKT3) (Biolegend, Catalog No.: 317344) was added and incubated at 4° C. for 50 minutes. After washing the plate three times with FACS buffer, 70 μL/well of PBS solution was added to resuspend the cells, and the fluorescent signal on CD3 T cells was detected on a flow cytometer (BD Cellesta). The binding activity was fitted using a four-parameter model, and the EC₅₀ value of each antibody binding to T cells was calculated.
# [4] = molecular target: T1, human CTLA-4 on the cell surface; assay: flow cytometry competition, 293T-hPD-1-hCTLA-4 cells (PD-1 co-expressed), biotin-human CD80
# Procedure: PD-1 and CTLA-4 are co-expressed on functionally exhausted T cells in the tumor microenvironment, and the expression level of PD-1 is higher than that of CTLA-4. […] 200 μL of the cells were added to a 96-well U-bottom plate, approximately 1.4×10⁵ cells/well. After centrifugation at 300 g for 5 minutes, the supernatant was discarded. […] After washing three times with FACS buffer, 100 μL/well of 1:800 diluted PE Streptavidin was added and incubated at 4° C. for 50 min. After washing three times with FACS buffer, 150 μL/well of PBS was added to resuspend the cells, and the fluorescence signal was detected on a flow cytometer (BECKMAN COULTER cytoFLEX). The binding activity was fitted using a four-parameter model, and the IC₅₀ value of the blocking activity of each antibody was calculated.
# [5] = molecular target: T2, human PD-1 protein (Acro, Catalog No. PD1-H5221) (human, UniProt Q15116 25-167); assay: ELISA, plate coated with human PD-1 protein
# T2 construct: Bought protein; also called human PD1-his; not shown: his tag
# T2 sequence (Q15116 25-167 limits assumed): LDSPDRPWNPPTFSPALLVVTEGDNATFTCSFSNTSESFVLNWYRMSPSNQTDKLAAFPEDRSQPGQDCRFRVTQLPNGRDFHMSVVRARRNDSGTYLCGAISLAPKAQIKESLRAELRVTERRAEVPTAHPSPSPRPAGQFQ
# Procedure: ELISA was used to determine the activity of the trispecific antibodies binding to the PD-1 protein: 1 μg/mL human PD-1 protein (Acro, Catalog No.: PD1-H5221) was used to coat a high-adsorption 96-well ELISA plate and incubated at 4° C. overnight. On the next day, the plate was washed three times with PBST solution and blocked with 1% BSA-PBS solution at 37° C. for 1 hour. At the same time, 3-fold gradient dilutions of the antibody were prepared with 1% BSA-PBS solution, with a starting concentration of 10 nM. The antibodies of each gradient concentration were added to the blocked 96-well ELISA plate at 100 µL/well in triplicate and incubated at 37° C. for 1 hour. The plate was then washed three times with 0.05% PBST solution, and 100 μL/well of HRP-labeled secondary antibody (Sigma, Catalog No.: A0170) diluted at 1:5000 was added to the ELISA plate and incubated at 37° C. for 1 hour. The plate was washed three times with 0.05% PBST solution and developed with TMB. The absorbance of the 96-well ELISA plate at 450 nm was detected by an ELISA reader. The OD₄₅₀ value was fitted using a four-parameter model to calculate the EC₅₀ value of each antibody binding to PD-1.
# [6] = molecular target: T3, human PD-1 on the cell surface (human, UniProt Q15116 25-288); assay: flow cytometry, 293T-hPD-1 cells, batch FACS#1
# T3 construct: whole, on cells; also called cell surface PD-1
# T3 sequence (Q15116 25-288): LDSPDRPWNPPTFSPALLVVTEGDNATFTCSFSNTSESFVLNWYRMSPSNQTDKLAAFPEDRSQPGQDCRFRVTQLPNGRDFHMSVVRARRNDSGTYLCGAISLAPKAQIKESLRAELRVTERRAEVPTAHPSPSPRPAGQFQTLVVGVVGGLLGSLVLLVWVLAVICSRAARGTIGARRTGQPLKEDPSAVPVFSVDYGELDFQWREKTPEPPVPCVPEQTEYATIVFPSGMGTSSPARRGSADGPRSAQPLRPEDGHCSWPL
# Procedure: (§2) After centrifugation at 300 g for 5 minutes, the supernatant was discarded. The antibodies were serially diluted 3-fold with FACS buffer to obtain two gradient series solution FACS #1 and FACS #2, with the starting concentration of 200 nM (Table 5, FACS #1) or 100 nM (Table 5, FACS #2, FIG. 2), respectively. Then 100 μL/well was added to a 96-well plate in triplicate, mixed, and incubated at 4° C. for 60 min. The plate was centrifuged and washed three times with FACS buffer. 100 μL/well of 1:800 diluted AF647-anti-hIgG(H+L) (Jackson, Catalog No.: 109-605-003) was added and incubated at 4° C. for 50 minutes. After washing the plate three times with FACS buffer, 100 μL/well of FACS buffer was added to resuspend the cells, and the fluorescence signal was detected on a flow cytometer (BECKMAN COULTER cytoFLEX). The binding activity was fitted using a four-parameter model to calculate the EC₅₀ value of each antibody binding to PD-1.
# [7] = molecular target: T3, human PD-1 on the cell surface; assay: flow cytometry, 293T-hPD-1 cells, batch FACS#2
# Procedure: as §2
# [8] = molecular target: T3, human PD-1 on the cell surface; assay: flow cytometry, 293T-hPD-1 cells, comparison with pembrolizumab
# Procedure: as §2
# [9] = molecular target: human PD-1 protein (Acro, PD1-H5257) (human, UniProt Q15116 25-167); assay: competitive ELISA, PD-1 coated, biotin-PD-L1 as labelled ligand
# Chain of human PD-1 protein (Acro, PD1-H5257) (Q15116 25-167 limits assumed): as the sequence (Q15116 25-167 limits assumed) above
# Procedure: The next day, the plate was washed three times with PBS solution and blocked with 1% BSA-PBS solution at 37° C. for 1 hour. […] 100 μL of the antibody-protein mixture was added to each well of the blocked 96-well ELISA plate and incubated at 37° C. for 1 hour. After washing four times with PBST, 100 μL of Strep-HRP (BD, Catalog No. 554066) diluted 1:5000 was added to each well of the ELISA plate and incubated at 37° C. for 1 hour. After washing 4 times with PBST, TMB was used for color development. The absorbance at 450 nm and 630 nm was detected by a microplate reader, and OD450-OD630 was calculated. The fluorescence intensity was fitted using a four-parameter model, and the IC₅₀ value of the blocking activity of each antibody was calculated.
# [10] = molecular target: T3, human PD-1 on the cell surface; assay: flow cytometry competition, 293T-hPD-1 cells, biotin-human PD-L1
# Procedure: 50 μL of antibody solution serially diluted 3-fold in FACS buffer was added in triplicate, with a starting concentration of 200 nM. After mixing, incubated at 4° C. for 60 minutes. After washing three times with FACS buffer, 100 μL/well of 1:800 diluted PE Streptavidin was added and incubated at 4° C. for 50 min. After washing three times with FACS buffer, 150 μL/well of PBS was added to resuspend the cells, and the fluorescence signal was detected on a flow cytometer (BECKMAN COULTER cytoFLEX). The four-parameter model was used to fit the binding activity and the IC₅₀ value of the blocking activity of each antibody was calculated.
# [11] = molecular target: T3, human PD-1 on the cell surface; assay: flow cytometry on activated human T cells (CD3+), PE anti-human IgG Fc
# Procedure: as §1
# [12] = molecular target: T2, human PD-1 protein (Acro, Catalog No. …); assay: BLI (Octet RED96e), antibody on AHC sensor, antigen as analyte 6.25-100 nM, 1:1 model
# Procedure: Octet® RED96e (ForteBio) was used to detect the affinity of trispecific antibodies to human PD-1, CTLA-4 and VEGFA. The specific method was as follows: the AHC Sensor was immersed in PBST (PBS containing 0.02% Tween) buffer for 10 minutes to activate the Sensor. The ligand (antibody to be tested) was diluted to 5 μg/mL with PBST buffer. […] The diluted ligand and analyte were added to the corresponding wells at 200 μL/well in triplicate. Program parameter settings: loading: 180 s, association: 180 s, dissociation: 600 s, regeneration: Gly-HCl pH 1.5, 30s, regeneration 3 times. […] Curve fit acceptance criteria: Full R\hat{ }2≥0.95.
# [13] = molecular target: T3, human PD-1 on the cell surface; assay: blocking of PD-L1 binding to cell surface PD-1, comparison with pembrolizumab; comparison run with pembrolizumab, cell surface PD-1
# T1 sequence (P16410 36-223): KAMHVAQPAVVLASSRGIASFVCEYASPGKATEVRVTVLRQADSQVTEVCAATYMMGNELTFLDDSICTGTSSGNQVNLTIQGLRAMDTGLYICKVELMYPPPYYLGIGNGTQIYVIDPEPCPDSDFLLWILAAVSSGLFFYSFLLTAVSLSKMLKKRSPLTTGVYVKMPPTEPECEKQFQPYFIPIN
Binder,EC50 [1],IC50 [2],EC50 [3],IC50 [4],EC50 [5],EC50 [6],EC50 [7],EC50 [8],IC50 [9],IC50 [10],EC50 [11],Kd [12],IC50 [13]
"202F1-hIgG4 antibody (antibody, V domains shown) VH: EVQLLESGGGLVQPGGSLRLSCAASGSIFSINHMAWYRQAPGKQRELVAGVNSRGTTNYVDSVKGRFTISRDNSKNTLYLQMNSLRAEDTAVYYCRALGGAVAAWGQGTLVTVSS",2.31 nM,10.1 nM,1.46 nM,4.74 nM,–,–,–,–,–,–,–,–,–
"CQ1-3/1-11-hIgG4 antibody (antibody, V domains shown, also called anti-PD-1 antibody CQ1-3/1-11) VH: EVQLVESGGGLVQPGGSLRLSCAASGFTFSSYGMSWVRQAPGKGLEWVSTISGGGRDTYYPDSVKGRFTISRDNSKNTLYLQMNSLRAEDTAVYYCARQNGITWFADWGQGTLVTVSS VL: DIQMTQSPSSLSASVGDRVTITCRASESVDNYGISFMNWYQQKPGKAPKLLIYAASNQGSGVPSRFSGSGSGTDFTLTISSLQPEDFATYYCQQSKEVPWTFGGGTKVEIKR",–,–,–,–,0.041 nM,2.8 nM,1.12 nM,4.34 nM,0.731 nM,4 nM,0.244 nM,1.96 nM,3.19 nM
